Substitutions are numbered along the chain they refer to.
T1: human CD228 (R&D Systems Custom02; Lot DCWR021505A) (human, UniProt P08582 20-709, limits assumed)
T1 construct: Bought custom protein coated on ELISA plates; also called CD228 protein; melanotransferrin
T1 sequence (looked up): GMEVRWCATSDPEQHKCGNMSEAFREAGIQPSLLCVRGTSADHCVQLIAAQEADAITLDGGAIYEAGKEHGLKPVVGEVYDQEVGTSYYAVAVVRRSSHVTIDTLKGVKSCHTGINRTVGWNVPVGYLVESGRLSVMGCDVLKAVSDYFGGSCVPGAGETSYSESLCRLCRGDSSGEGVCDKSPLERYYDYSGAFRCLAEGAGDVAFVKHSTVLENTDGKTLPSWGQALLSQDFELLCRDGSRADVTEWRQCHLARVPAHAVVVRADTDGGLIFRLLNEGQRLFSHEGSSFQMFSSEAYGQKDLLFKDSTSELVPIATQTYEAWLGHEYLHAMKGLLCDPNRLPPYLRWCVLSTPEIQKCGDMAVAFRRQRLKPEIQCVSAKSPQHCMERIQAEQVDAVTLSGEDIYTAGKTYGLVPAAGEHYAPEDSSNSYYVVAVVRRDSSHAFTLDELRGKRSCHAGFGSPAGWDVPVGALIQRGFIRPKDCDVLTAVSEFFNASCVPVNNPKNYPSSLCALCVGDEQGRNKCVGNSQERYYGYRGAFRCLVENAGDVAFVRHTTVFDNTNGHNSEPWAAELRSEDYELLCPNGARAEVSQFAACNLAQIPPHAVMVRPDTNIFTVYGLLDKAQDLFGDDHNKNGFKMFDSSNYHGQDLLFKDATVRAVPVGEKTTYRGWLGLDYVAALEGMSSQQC

T2: CD228 on A375 and A2058 cells (human, UniProt P08582 20-709)
T2 construct: whole, on cells; GPI-anchored cell surface protein; also called CD228 on A375 cells; CD228 on A2058 cells
T2 sequence (looked up): T1 sequence (looked up)

B1: hL49_3X_Ala (antibody, V domains shown)
VH: QVQLQESGPGLVKPSETLSLTCTVSGDSITSGYWNWIRQPPGKGLEYIGYISDSGITYYNPSLKSRVTISRDTSKNQYSLKLSSVTAADTAVYYCARRTLATYYAMDYWGQGTLVTVSS
VL: DFVMTQSPLSLPVTLGQPASISCRASQSLVASDGNTYLAWYQQRPGQSPRLLIYRVSNRFSGVPDRFSGSGSGTDFTLKISRVEAEDVGVYYCSQSTAVPPTFGQGTKLEIK
notes: hL49 triple mutant: all three light chain CDR histidines (two in CDR-L1, one in CDR-L3) changed to alanine
B2: hL49_27D_Ala (antibody, V domains shown)
VH: B1 VH
VL: B1 VL with A39H, A98H
notes: hL49 variant with the light chain CDR-L1 histidine 27D changed to alanine
B3: hL49_27D_Gln (antibody, V domains shown)
VH: B1 VH
VL: B1 VL with A31Q, A39H, A98H
notes: hL49 variant with the light chain CDR-L1 histidine 27D changed to glutamine
B4: hL49_27D_Tyr (antibody, V domains shown)
VH: B1 VH
VL: B1 VL with A31Y, A39H, A98H
notes: hL49 variant with the light chain CDR-L1 histidine 27D changed to tyrosine
B5: hL49 (antibody, V domains shown)
VH: B1 VH
VL: B1 VL with A31H, A39H, A98H
notes: Humanized antibody; Only variable domains are tied to it; also called hL49 HALC; hL49 WT
B6: hL49_3X_Gln (antibody, V domains shown)
VH: B1 VH
VL: B1 VL with A31Q, A39Q, A98Q
notes: hL49 triple mutant: all three light chain CDR histidines changed to glutamine; also called 3X-Gin
B7: hL49_3X_Tyr (antibody, V domains shown)
VH: B1 VH
VL: B1 VL with A31Y, A39Y, A98Y
notes: hL49 triple mutant: all three light chain CDR histidines changed to tyrosine
B8: hL49_34_Ala (antibody, V domains shown)
VH: B1 VH
VL: B1 VL with A31H, A98H
notes: hL49 variant with the light chain CDR-L1 histidine 34 changed to alanine; also called hL49_H34A
B9: hL49_34_Gln (antibody, V domains shown)
VH: B1 VH
VL: B1 VL with A31H, A39Q, A98H
notes: hL49 variant with the light chain CDR-L1 histidine 34 changed to glutamine
B10: hL49_34_Tyr (antibody, V domains shown)
VH: B1 VH
VL: B1 VL with A31H, A39Y, A98H
notes: hL49 variant with the light chain CDR-L1 histidine 34 changed to tyrosine; also called hL49_H34Y; hL49_Tyr

Target: T1, human CD228 (R&D Systems Custom02; Lot …)
Test: ELISA, coated human CD228, pH 4.55
Experimental: (§1) Briefly, 100 ng of human CD228 (R&D Systems Custom02; Lot DCWR021505A) or BSA (Sigma; Catalog No. A7030-100G) were diluted in PBS and added to each well overnight at 4° C. Plates were then washed three times with PBS-T (EMD Millipore; Catalog No. 5246531EA). After washing, plates were blocked with 3% (w/v) BSA in PBS-T for 1 hour at room temperature. Excess blocking buffer was then removed and the primary antibody was added in 3-fold dilutions in diluent buffer (0.15M citrate-phosphate buffer pH 4.0-7.5) starting at an antibody concentration of 60 nM. After incubating for 1 hour at room temperature, the plates were washed 3 times and then incubated with secondary antibody (Goat anti-human IgG Fc-specific HRP-conjugated, Jackson ImmunoResearch code #109-035-098) in PBS-T with 1% BSA. After incubating for 30 minutes at room temperature, plates were washed 3 times. 100 μl TMB substrate (Life Technologies-, Cat #002023) was then added to each well. After incubating 10 minutes at room temperature, 100 μl H₂SO₄ was added to each well to stop the reaction, plates were covered with clear plate seal and read on an Envision at […]. pH-dependent binding for hL49 and nine variants with histidine substituted to alanine, glutamine, or tyrosine in the light chain CDRs are shown in FIG. 1A-1I. […] The triple mutants have lower affinity overall compared to hL49.

B1 was tested. Which EC50 did it give?
Its EC50 is 108 nM.

With B2 as the binder, how does the EC50 read?
The EC50 was 460 nM.

B3 was tested. Which EC50 did it give?
Its EC50 is 365 nM.

For B4, which EC50 is on record?
Its EC50 is 335 nM.

Target: T1, human CD228 (R&D Systems Custom02; Lot …)
Test: ELISA, coated human CD228, pH 7.40
Experimental: as §1

For B5, which EC50 is on record?
Its EC50 is 1.76 nM.

B1 was tested. Which EC50 did it give?
Its EC50 is 4.46 nM.

Which EC50 does the source give for B6 here?
The EC50 was 14.6 nM.

How did the EC50 turn out when B7 was run?
Its EC50 is 5.43 nM.

With B2 as the binder, how does the EC50 read?
Its EC50 is 0.55 nM.

Which EC50 does the source give for B3 here?
The EC50 was 0.68 nM.

How did the EC50 turn out when B4 was run?
The EC50 was 0.72 nM.

For B8, which EC50 is on record?
The EC50 was 1.2 nM.

For B9, which EC50 is on record?
Its EC50 is 1.65 nM.

Target: T1, human CD228 (R&D Systems Custom02; Lot …)
Test: ELISA on CD228 protein, neutral pH (rounded form of Table 2, pH 7.40)

B5 was tested. Which EC50 did it give?
The EC50 was 1.8 nM.

How did the EC50 turn out when B1 was run?
The EC50 was 4.5 nM.

How did the EC50 turn out when B6 was run?
Its EC50 is 14.6 nM.

How did the EC50 turn out when B7 was run?
Its EC50 is 5.4 nM.

B2 was tested. Which EC50 did it give?
Its EC50 is 0.6 nM.

How did the EC50 turn out when B3 was run?
Its EC50 is 0.7 nM.

Which EC50 does the source give for B4 here?
Its EC50 is 0.7 nM.

With B8 as the binder, how does the EC50 read?
The EC50 was 1.2 nM.

Which EC50 does the source give for B9 here?
Its EC50 is 1.7 nM.

Target: T2, CD228 on A375 and A2058 cells
Test: flow cytometry saturation binding on A2058 cells (~40K receptors), neutral pH
Experimental: (§2) The ability of various anti-CD228 antibodies to bind to CD228 on A375 cells, A2058 cells, and CD228 protein was evaluated at neutral pH using a saturation binding assay. Briefly, 1×10⁵ A2058 or A375 cells that have either 40,000 or 18,000 copies of CD228 respectively, were aliquoted per well of a 96-well v-bottom plates. Each CD228 antibody was added in concentrations ranging from 0.66 pM to 690 nM and incubated on ice for 60 minutes. Cells were pelleted and washed 3× with PBS/BSA followed by addition of 10 μg/ml of a PE labeled anti-human IgG goat secondary antibody and incubated on ice for an additional 60 minutes. Cells were pelleted and washed 3× with PBS/BSA and resuspended in 125 μL of PBS/BSA. Fluorescence was analyzed by flow cytometry, using percent of saturated fluorescent signal to determine percent bound and to subsequently calculate apparent KID. […] The histidine 34 variants show large differences for substitutions with alanine, glutamine, and tyrosine.

For B5, which EC50 is on record?
Its EC50 is 0.6 nM.

With B1 as the binder, how does the EC50 read?
Its EC50 is 0.9 nM.

Which EC50 does the source give for B6 here?
Its EC50 is 1.3 nM.

Which EC50 does the source give for B7 here?
Its EC50 is 1.3 nM.

B2 was tested. Which EC50 did it give?
The EC50 was 0.6 nM.

B3 was tested. Which EC50 did it give?
The EC50 was 0.5 nM.

Which EC50 does the source give for B4 here?
The EC50 was 0.7 nM.

With B8 as the binder, how does the EC50 read?
Its EC50 is 1.3 nM.

With B9 as the binder, how does the EC50 read?
The EC50 was 2.1 nM.

Which EC50 does the source give for B10 here?
The EC50 was 11.2 nM.

Target: T2, CD228 on A375 and A2058 cells
Test: flow cytometry saturation binding on A375 cells (~18K receptors), neutral pH
Experimental: as §2

Which EC50 does the source give for B5 here?
The EC50 was 1.1 nM.

For B1, which EC50 is on record?
The EC50 was 1.4 nM.

B6 was tested. Which EC50 did it give?
The EC50 was 2.1 nM.

Which EC50 does the source give for B7 here?
The EC50 was 2.1 nM.

Which EC50 does the source give for B2 here?
The EC50 was 1.1 nM.

With B3 as the binder, how does the EC50 read?
The EC50 was 0.9 nM.

B4 was tested. Which EC50 did it give?
Its EC50 is 1.1 nM.

Which EC50 does the source give for B8 here?
The EC50 was 1.6 nM.

How did the EC50 turn out when B9 was run?
The EC50 was 5.5 nM.

B10 was tested. Which EC50 did it give?
The EC50 was 79 nM.

Target: T1, human CD228 (R&D Systems Custom02; Lot …)
Test: BLI (Octet Red 384), antibody as ligand, antigen as analyte
Experimental: The binding kinetics of hL49, hL49_34Ala, and hL49_Tyr were determined using BioLayer Interferometry (BLI) technology in an Octet Red 384 instrument using the antibodies as the ligands and the antigen as the analyte. […] In contrast, hL49_34Tyr has a slower on-rate but a similar off-rate compared to wild-type hL49, which may explain its reduced affinity on cells.

For B5, which Kd is on record?
The Kd was 13.1 nM.

What about the “kobs” value of the same binder?
Its value is 0.0853 s⁻¹.

And the koff?
Its koff is 0.0011 s⁻¹.

And the kon?
Its kon is 84200 M⁻¹ s⁻¹.

What does the source list for B8?
Kd: 15.8 nM; kobs: 0.282 s⁻¹; koff: 0.00438 s⁻¹; kon: 277000 M⁻¹ s⁻¹

What does the source list for B10?
Kd: 132 nM; kobs: 0.0113 s⁻¹; koff: 0.00132 s⁻¹; kon: 10000 M⁻¹ s⁻¹

Target: T1, human CD228 (R&D Systems Custom02; Lot …)
Test: ELISA, coated human CD228, pH 6.30
Experimental: as §1

With B5 as the binder, how does the EC50 read?
The EC50 was 136 nM.

How did the EC50 turn out when B1 was run?
Its EC50 is 73.8 nM.

For B6, which EC50 is on record?
The EC50 was 52.6 nM.

Which EC50 does the source give for B7 here?
The EC50 was 74.6 nM.

Which EC50 does the source give for B2 here?
Its EC50 is 0.99 nM.

How did the EC50 turn out when B3 was run?
The EC50 was 1.48 nM.

For B4, which EC50 is on record?
Its EC50 is 0.96 nM.

For B8, which EC50 is on record?
The EC50 was 16.5 nM.

Which EC50 does the source give for B9 here?
Its EC50 is 23.4 nM.

Target: T1, human CD228 (R&D Systems Custom02; Lot …)
Test: ELISA, coated human CD228, pH 5.60
Experimental: as §1

B1 was tested. Which EC50 did it give?
The EC50 was 405 nM.

Which EC50 does the source give for B2 here?
The EC50 was 9.14 nM.

B3 was tested. Which EC50 did it give?
The EC50 was 17.3 nM.

Which EC50 does the source give for B4 here?
Its EC50 is 5.16 nM.

B8 was tested. Which EC50 did it give?
The EC50 was 271 nM.

For B9, which EC50 is on record?
The EC50 was 169 nM.

Reference: US20230295330A1 (Seagen, published 2023)
